± gives the uncertainty stated by the source.
Experiment: self-splicing fitness, log relative to wild type (ln ratio); higher = more splicing; Tetrahymena group I intron in knt gene, E. coli kanamycin selection, DiMSum; sequences stand for … in CUCUCU…GGAGGGAAAAGUUAUCAGGCAUGCACCUGGUAGCUAGUCUUUAAACCAAUAGAUUGCAUCGGUUUAAAAGGCAAGACCGUCAAAUUGCGGGAAAGGGGUCAACAGCCGUUCAGUACCAAGUCUCAGGGGAAACUUUGAGAUGGCCUUGCAAAGGGUAUGGUAAUAAGCUGACGGACAUGGUCCUAACCACGCAGCCAAGUCCUAAGUCAACAGAUCUUCUGUUGAUAUGGAUGCAGUUCACAGACUAAAUGUCGGUCGGGGAAGAUGUAUUCUUCUCAUAAGAUAUAGUCGGACCUCUCCUUAAUGGGAGCUAGCGGAUGAAGUGAUGCAACACUGGAGCCGCUGGGAACUAAUUUGUAUGCGAAAGUAUAUUGAUUAGUUUUGGAGUACUCGUGGUCG
Outline: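 A randomised library covering all eight P1ex-region intron nucleotides was built with the intron in the knt kanamycin-resistance gene on pET-22b(+) and held in E. coli BL21(DE3). Cells were grown overnight at 37°C or 30°C on LB agar, with or without 25 μg/mL kanamycin, plus 100 μg/mL carbenicillin, 50 μM IPTG and 0.2% rhamnose, and pooled colonies were amplicon-sequenced on an Illumina HiSeq 2500. DiMSum fitness is the error-weighted combination of wild-type-normalised replicate fold changes, kanamycin versus none.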

Row | Sequence | self-splicing fitness (ln) (30 °C) | self-splicing fitness (ln) (37 °C)
1 | ACGCAGCAAUAUUACGUGAC | -3.45 ± 0.25 | -2.3 ± 0.21
2 | ACGCAGCAAUAUUACGUGCG | -3.58 ± 0.13 | -2.85 ± 0.15
3 | ACGCAGCAAUAUUACGUUUA | -2.58 ± 0.12 | -1.42 ± 0.095
4 | ACGGAGCAAUAUUACGAAGC | -4.24 ± 0.39 | -2.4 ± 0.18
5 | ACGGAGCAAUAUUACGAUAA | -3.89 ± 0.23 | -2.72 ± 0.21
6 | ACGGAGCAAUAUUACGAUCG | -0.961 ± 0.088 | -1.14 ± 0.14
7 | ACGGAGCAAUAUUACGAUUG | -3.04 ± 0.25 | -1.43 ± 0.22
8 | ACGGAGCAAUAUUACGCCCG | – | 0.0539 ± 0.32
9 | ACGGAGCAAUAUUACGCGAG | -2.86 ± 0.13 | -1.35 ± 0.13
10 | ACGGAGCAAUAUUACGGAUU | -3.94 ± 0.31 | -0.896 ± 0.16
11 | ACGGAGCAAUAUUACGGGCG | -2.12 ± 0.19 | -0.224 ± 0.19
12 | ACGGAGCAAUAUUACGGUAC | -4.95 ± 0.36 | -2.3 ± 0.22
13 | ACGGAGCAAUAUUACGGUCG | -2.48 ± 0.11 | -0.856 ± 0.11
14 | ACGGAGCAAUAUUACGGUGG | -3.07 ± 0.18 | -2.22 ± 0.26
15 | ACGGAGCAAUAUUACGGUUC | -4.29 ± 0.37 | -1.32 ± 0.22
16 | ACGGAGCAAUAUUACGUAAU | -3.61 ± 0.41 | -2.39 ± 0.48
17 | ACGGAGCAAUAUUACGUGAA | -2.95 ± 0.15 | -2.35 ± 0.19
18 | ACGGAGCAAUAUUACGUGGG | -3.99 ± 0.18 | -2.29 ± 0.15
19 | ACGGAGCAAUAUUACGUGUC | -4.54 ± 0.46 | -1.8 ± 0.18
20 | ACGUAGCAAUAUUACGAAGC | – | -1.96 ± 0.41
21 | ACGUAGCAAUAUUACGAAUA | -2.32 ± 0.17 | -1.46 ± 0.12
22 | ACGUAGCAAUAUUACGAGAA | -2.37 ± 0.26 | -3.02 ± 0.33
23 | ACGUAGCAAUAUUACGAGCU | -1.36 ± 0.12 | -1.06 ± 0.14
24 | ACGUAGCAAUAUUACGAUAC | -2.62 ± 0.12 | -2.26 ± 0.19

Row | Sequence | self-splicing fitness (ln) (30 °C) | self-splicing fitness (ln) (37 °C)
25 | ACGUAGCAAUAUUACGAUUG | -2.78 ± 0.11 | -1.99 ± 0.12
26 | ACGUAGCAAUAUUACGCAAA | -1.78 ± 0.21 | -2.42 ± 0.3
27 | ACGUAGCAAUAUUACGCAAU | -2.95 ± 0.17 | -1.53 ± 0.22
28 | ACGUAGCAAUAUUACGCAUG | -2.97 ± 0.15 | -0.981 ± 0.11
29 | ACGUAGCAAUAUUACGCAUU | -2.8 ± 0.17 | -0.657 ± 0.11
30 | ACGUAGCAAUAUUACGCCGC | -3.7 ± 0.46 | –
31 | ACGUAGCAAUAUUACGCGAU | -3.01 ± 0.14 | -1.5 ± 0.11
32 | ACGUAGCAAUAUUACGCGGA | -2.05 ± 0.18 | -0.895 ± 0.11
33 | ACGUAGCAAUAUUACGCGUA | -2.22 ± 0.17 | -1.74 ± 0.16
34 | ACGUAGCAAUAUUACGCUUU | -1.92 ± 0.058 | -1.11 ± 0.075
35 | ACGUAGCAAUAUUACGGAAC | -2.09 ± 0.24 | -2.14 ± 0.26
36 | ACGUAGCAAUAUUACGGAUU | -2.5 ± 0.14 | -1.8 ± 0.2
37 | ACGUAGCAAUAUUACGGCCG | -0.0843 ± 0.13 | -0.11 ± 0.19
38 | ACGUAGCAAUAUUACGGGAC | -4.43 ± 0.3 | -1.45 ± 0.16
39 | ACGUAGCAAUAUUACGGUAU | -2.02 ± 0.11 | -1.56 ± 0.12
40 | ACGUAGCAAUAUUACGGUGA | -2.3 ± 0.2 | -0.727 ± 0.15
41 | ACGUAGCAAUAUUACGUAUG | -2.75 ± 0.18 | -3.33 ± 0.42
42 | ACGUAGCAAUAUUACGUCGA | -3.67 ± 0.3 | -2.72 ± 0.24
43 | ACGUAGCAAUAUUACGUCUC | -2.84 ± 0.19 | -3.13 ± 0.32
44 | ACGUAGCAAUAUUACGUGCU | -1.94 ± 0.11 | -0.828 ± 0.12
45 | ACUAAGCAAUAUUACGAAAC | -3.55 ± 0.12 | -2.3 ± 0.16
46 | ACUAAGCAAUAUUACGACUG | -0.95 ± 0.065 | -0.652 ± 0.089
47 | ACUAAGCAAUAUUACGAGCC | -3.72 ± 0.4 | -1.62 ± 0.33
48 | ACUAAGCAAUAUUACGAUCA | -1.15 ± 0.072 | -0.58 ± 0.073

Source: the supplement of paper PMC7877785
